Reference: US20230070886A1 (NOVAVAX, published 2023)

Molecular target: His-tagged human angiotensin-converting enzyme 2 precursor (hACE2) (human, UniProt Q9BYF1 18-740)
Test: bio-layer interferometry

Sequence of His-tagged human angiotensin-converting enzyme 2 precursor (hACE2) (Q9BYF1 18-740 limits assumed): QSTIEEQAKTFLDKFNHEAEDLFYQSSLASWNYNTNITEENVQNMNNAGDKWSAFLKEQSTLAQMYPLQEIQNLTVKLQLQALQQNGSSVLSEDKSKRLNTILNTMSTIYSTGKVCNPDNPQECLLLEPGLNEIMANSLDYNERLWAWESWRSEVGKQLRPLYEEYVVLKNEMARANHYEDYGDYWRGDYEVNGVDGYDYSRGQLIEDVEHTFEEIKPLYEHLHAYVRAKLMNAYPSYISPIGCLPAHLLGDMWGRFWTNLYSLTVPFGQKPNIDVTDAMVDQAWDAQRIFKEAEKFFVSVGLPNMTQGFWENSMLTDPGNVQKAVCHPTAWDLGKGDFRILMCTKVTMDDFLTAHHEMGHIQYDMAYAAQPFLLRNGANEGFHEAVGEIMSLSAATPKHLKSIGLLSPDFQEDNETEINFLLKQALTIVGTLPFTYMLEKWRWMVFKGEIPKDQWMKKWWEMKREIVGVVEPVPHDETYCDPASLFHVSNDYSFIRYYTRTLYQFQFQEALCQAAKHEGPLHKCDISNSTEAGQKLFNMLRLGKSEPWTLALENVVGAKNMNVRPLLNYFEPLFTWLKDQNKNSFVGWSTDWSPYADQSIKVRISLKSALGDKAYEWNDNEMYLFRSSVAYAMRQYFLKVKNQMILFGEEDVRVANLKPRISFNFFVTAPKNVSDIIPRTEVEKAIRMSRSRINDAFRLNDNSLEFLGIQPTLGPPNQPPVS

B1: MERS S protein (other)
chain: YVDVGPDSVKSACIEVDIQQTFFDKTWPRPIDVSKADGIIYPQGRTYSNITITYQGLFPYQGDHGDMYVYSAGHATGTTPQKLFVANYSQDVKQFANGFVVRIGAAANSTGTVIISPSTSATIRKIYPAFMLGSSVGNFSDGKMGRFFNHTLVLLPDGCGTLLRAFYCILEPRSGNHCPAGNSYTSFATYHTPATDCSDGNYNRNASLNSFKEYFNLRNCTFMYTYNITEDEILEWFGITQTAQGVHLFSSRYVDLYGGNMFQFATLPVYDTIKYYSIIPHSIRSIQSDRKAWAAFYVYKLQPLTFLLDFSVDGYIRRAIDCGFNDLSQLHCSYESFDVESGVYSVSSFEAKPSGSVVEQAEGVECDFSPLLSGTPPQVYNFKRLVFTNCNYNLTKLLSLFSVNDFTCSQISPAAIASNCYSSLILDYFSYPLSMKSDLSVSSAGPISQFNYKQSFSNPTCLILATVPHNLTTITKPLKYSYINKCSRFLSDDRTEVPQLVNANQYSPCVSIVPSTVWEDGDYYRKQLSPLEGGGWLVASGSTVAMTEQLQMGFGITVQYGTDTNSVCPKLEFANDTKIASQLGNCVEYSLYGVSGRGVFQNCTAVGVRQQRFVYDAYQNLVGYYSDDGNYYCLRACVSVPVSVIYDKETKTHATLFGSVACEHISSTMSQYSRSTRSMLKRRDSTYGPLQTPVGCVLGLVNSSLFVEDCKLPLGQSLCALPDTPSTLTPRSVRSVPGEMRLASIAFNHPIQVDQLNSSYFKLSIPTNFSFGVTQEYIQTTIQKVTVDCKQYVCNGFQKCEQLLREYGQFCSKINQALHGANLRQDDSVRNLFASVKSSQSSPIIPGFGGDFNLTLLEPVSISTGSRSARSAIEDLLFDKVTIADPGYMQGYDDCMQQGPASARDLICAQYVAGYKVLPPLMDVNMEAAYTSSLLGSIAGVGWTAGLSSFAAIPFAQSIFYRLNGVGITQQVLSENQKLIANKFNQALGAMQTGFTTTNEAFHKVQDAVNNNAQALSKLASELSNTFGAISASIGDIIQRLDVLEQDAQIDRLINGRLTTLNAFVAQQLVRSESAALSAQLAKDKVNECVKAQSKRSGFCGQGTHIVSFVVNAPNGLYFMHVGYYPSNHIEVVSAYGLCDAANPTNCIAPVNGYFIKTNNTRIVDEWSYTGSSFYAPEPITSLNTKYVAPQVTYQNISTNLPPPLLGNSTGIDFQDELDEFFKNVSTSIPNFGSLTQINTTLLDLTYEMLSLQQVVKALNESYIDLKELGNYTYYNKWPWYIWLGFIAGLVALALCVFFILCCTGCGTNCMGKLKCNRCCDRYEEYDLEPHKVHVH
Q: Does B1 bind?
A: no binding
